Test results reported in US20260132173A1 (JOON HAENG, published 2026).

Molecular target: T1, human TLR5 expressed from p3xFlag-hTLR5 in HEK293T cells (human, UniProt O60602 21-858)
T1 construct: whole, on cells; In the reporter assays the receptor stood on transfected HEK293T cells; In the Co-IP it stood in the RIPA lysate of such cells and was pulled down with an anti-Flag antibody; also called Toll-like receptor 5; not shown: 3xFlag tag of plasmid p3xFlag-hTLR5
Assay: Co-IP: 3xFlag-hTLR5 HEK293T lysate, anti-Flag pull-down, western blot with anti-Myc-HRP

T1 sequence (O60602 21-858): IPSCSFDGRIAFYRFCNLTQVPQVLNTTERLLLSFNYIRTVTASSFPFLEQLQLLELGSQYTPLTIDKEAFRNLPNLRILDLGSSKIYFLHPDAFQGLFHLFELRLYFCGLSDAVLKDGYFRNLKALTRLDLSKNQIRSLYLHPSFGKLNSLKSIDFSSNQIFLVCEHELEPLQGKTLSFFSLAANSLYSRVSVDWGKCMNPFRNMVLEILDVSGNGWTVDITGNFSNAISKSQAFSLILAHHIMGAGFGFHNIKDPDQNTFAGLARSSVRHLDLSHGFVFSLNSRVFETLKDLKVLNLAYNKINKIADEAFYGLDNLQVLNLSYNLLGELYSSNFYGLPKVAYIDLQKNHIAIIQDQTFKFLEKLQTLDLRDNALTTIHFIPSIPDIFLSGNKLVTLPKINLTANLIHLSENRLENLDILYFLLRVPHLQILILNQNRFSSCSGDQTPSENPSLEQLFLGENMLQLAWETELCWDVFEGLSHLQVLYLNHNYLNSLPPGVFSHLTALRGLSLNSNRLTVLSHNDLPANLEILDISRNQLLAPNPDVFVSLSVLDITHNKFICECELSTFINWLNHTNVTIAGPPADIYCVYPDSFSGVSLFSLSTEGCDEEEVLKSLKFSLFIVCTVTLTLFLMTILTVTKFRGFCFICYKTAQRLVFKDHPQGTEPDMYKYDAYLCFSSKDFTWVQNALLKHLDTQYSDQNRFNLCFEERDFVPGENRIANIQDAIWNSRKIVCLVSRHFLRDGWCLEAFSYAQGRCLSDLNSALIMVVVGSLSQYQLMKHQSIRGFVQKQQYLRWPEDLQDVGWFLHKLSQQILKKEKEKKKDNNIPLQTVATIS

B1: wild-type flagellin (eukFlaB) expressed in Expi293 cells (ligand)
chain: AVNVNTNVAAMTAQRYLNNANSAQQTSMERLSSGFKINSAKDDAAGLQISNRLNVQSRGLDVAVRNANDGISIAQTAEGAMNETTNILQRMRDLSLQSANGSNSKSERVAIQEEVTALNDELNRIAETTSFGGNKLLNGTYGTKAMQIGADNGEAVMLSLKDMRSDNVMMGGVSYQAEEGKDKNWNVAAGDNDLTIALTDSFGNEQEIEINAKAGDDIEELATYINGQTDLVKASVGEGGKLQIFAGNNKVQGEIAFSGSLAGELGLGEGKNVTVDTIDVTTVQGAQESVAIVDAALKYVDSHRAELGAFQNRFNHAISNLDNINENVNASKSRIKDTDFAKETTQLTKTQILSQASSSILAQAKQAPNSALSLLG
modifications: N-glycosylated by expression in Expi293 cells; five putative sites predicted at N83, N101, N139, N273, N330
notes: Secreted through the IgK leader of pSectag2B; also called glycosylated-eFlaB; eukaryotic-expressed wild-type flagellin; not shown: C-terminal Myc tag (and His tag implied by Ni-NTA purification) from vector pSectag2B
binding result: no binding
